# Earlier results as cited in patent US12678516B2, “Immunostimulatory toll-like receptor agonist-nanoparticle for cancer immunotherapy” (The Board of Trustees of the Leland Stanford Junior …, priority 2021, dated 2026).
# Key:
# [1] = not given; remark: listed apart in the source
Substance,"grade Ill/IV enterocolitis, share of patients (10 mg/kg)","hepatitis (irAE) (CTLA-4 blockade, patients)","hypophysitis (irAE) (CTLA-4 blockade, patients)","leucopenia (irAE) (CTLA-4 blockade, patients)","pancreatitis (irAE) (CTLA-4 blockade, patients)","rash/pruritus (irAE) (CTLA-4 blockade, patients)","uveitis (irAE) (CTLA-4 blockade, patients)","toxicity with more frequent dosing ([1]; 10 mg/kg monthly vs 15 mg/kg every 3 months, phase II)",sustained plasma levels in patients with the majority of responses ([1]; at one month),"doses at which objective responses were evident ([1]; single antibody infusion, doses 0.01 to 15 mg/kg)"
ipilimumab: fully humanized CTLA4 antibody,~ 15%,5-10%,5%,< 2%,< 2%,> 50%,< 2%,–,–,–
Tremelimumab: fully humanized CTLA4 antibody,–,–,–,–,–,–,–,doubled,> 30 µg/mL,≥ 3 mg/kg
